PMC6212594, “Structural insights into the π-π-π stacking mechanism and DNA-binding activity of the YEATS domain” (Nature Communications, 2018)
Where two headings read alike, the source gives them in different places. *1 amine or outer side, *2 acyl side, *3 side chain or, on linkers, in order; H or OH if unused. Where no end group is shown, it is not given here. The star is where a group is joined. Suc = O=C(CCC(=O)[*:2])[*:1]; Crotonyl(E) = C/C=C/C(=O)*; Propionyl = CCC(=O)*; Butyryl = CCCC(=O)*

Assays:
Taf14-YEATS G82A [1] = molecular target: T1, Taf14-YEATS G82A (Saccharomyces cerevisiae, UniProt P35189, G82A); assay: biochemical; assay type: binding, yeast
Description: Kd value was calculated by a nonlinear least-squares analysis in Kaleidagraph using the1 Δδ=ΔδmaxL+P+Kd-L+P+Kd^2-4PL/2P where [L] is concentration of free acetyllysine, [P] is concentration of the protein, Δδ is the observed chemical shift change, and Δδmax is the normalized chemical shift change at saturation. Normalized chemical shift changes were calculated using the equation2 Δδ=ΔδH^2+ΔδN/5^2 where Δδ is the change in chemical shift in parts per million (ppm).

AF9-YEATS Y78W [2] = molecular target: T2, AF9-YEATS Y78W (Homo sapiens, UniProt P42568, Y78W); assay: Tryptophan fluorescence binding, AF9-YEATS Y78W; conditions: 20 mM Tris pH 7.5, 500 mM NaCl, 2 mM BME, 25 °C, 1–2 µM protein, peptides aa 5–13, average of three separate experiments ± SD, read-out: Binding affinity Kd
T2 sequence (P42568 1-138 Y78W): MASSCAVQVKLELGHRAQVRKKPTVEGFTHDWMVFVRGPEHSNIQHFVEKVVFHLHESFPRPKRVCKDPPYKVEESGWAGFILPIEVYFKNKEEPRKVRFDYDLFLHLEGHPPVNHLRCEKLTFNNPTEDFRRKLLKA

Taf14-YEATS G82A [3] = molecular target: T1, Taf14-YEATS G82A; assay: biochemical
Taf14 YEATS domain [4] = molecular target: T3, Taf14 YEATS domain (yeast, UniProt P35189 1-137)
T3 chain: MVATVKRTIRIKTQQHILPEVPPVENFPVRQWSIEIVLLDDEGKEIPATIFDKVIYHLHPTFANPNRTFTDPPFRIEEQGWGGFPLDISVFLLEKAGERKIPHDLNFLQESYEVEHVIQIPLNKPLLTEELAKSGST

[5] = molecular target: T4, AF9-YEATS domain (aa 1-138) (human, UniProt P42568 1-138)
T4 chain: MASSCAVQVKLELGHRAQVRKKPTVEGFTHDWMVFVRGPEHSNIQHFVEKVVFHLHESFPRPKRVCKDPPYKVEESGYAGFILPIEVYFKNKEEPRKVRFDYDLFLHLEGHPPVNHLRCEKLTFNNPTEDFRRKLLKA

Taf14-YEATS G82A (1-137) = molecular target: T5, Taf14-YEATS G82A (1-137) (yeast, UniProt P35189 1-137, G82A); assay: crystal structure; Taf14-YEATS (1-137) with 5 (wild type) or 10 (G82A) molar equivalents of peptide; sitting drop, 18 °C, PEG 600, citric acid pH 6.0; conditions: both partners purified
T5 construct: Taf14, yeast, YEATS domain, aa 1-137 with G82A (construct used for crystallization); Also crystallized in the apo state; also called G82A mutant; source: E. coli BL21 (DE3) RIL, purified
T5 sequence (looked up): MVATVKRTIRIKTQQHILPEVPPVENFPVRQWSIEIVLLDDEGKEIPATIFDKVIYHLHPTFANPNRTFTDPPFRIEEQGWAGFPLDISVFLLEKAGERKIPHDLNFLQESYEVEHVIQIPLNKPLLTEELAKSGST

[6] = molecular target: T6, AF9-YEATS domain (aa 1-138) (human, UniProt P42568 1-138); assay: other fluorescence titration; tryptophan fluorescence; 1-2 µM wild-type or mutated AF9 YEATS domain in 20 mM Tris pH 7.5, 500 mM NaCl, 2 mM BME, 25 °C, increasing concentrations of H3 peptide (aa 5-13); conditions: both partners purified
T6 construct: AF9, human, YEATS domain, aa 1-138, in pET28b; His tag cleaved with thrombin; 15N-labelled for NMR; also called WT AF9-YEATS; source: E. coli BL21 (DE3) RIL, purified (nickel-NTA, ion exchange / size exclusion)
T6 sequence (looked up): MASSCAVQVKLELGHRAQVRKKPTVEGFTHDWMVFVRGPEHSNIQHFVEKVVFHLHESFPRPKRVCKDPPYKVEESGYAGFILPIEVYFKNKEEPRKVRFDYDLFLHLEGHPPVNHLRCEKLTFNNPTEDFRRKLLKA

Taf14-YEATS (1-137) = molecular target: T7, Taf14-YEATS (1-137) (yeast, UniProt P35189 1-137); assay: crystal structure; Taf14-YEATS (1-137) with 5 (wild type) or 10 (G82A) molar equivalents of peptide; sitting drop, 18 °C, PEG 600, citric acid pH 6.0; conditions: both partners purified
T7 construct: Taf14, yeast, YEATS domain, aa 1-137 (construct used for crystallization); GST tag probably cleaved for crystallization (surmise); also called wild-type Taf14-YEATS; source: E. coli BL21 (DE3) RIL, purified (glutathione Sepharose 4B, size exclusion)
T7 sequence (looked up): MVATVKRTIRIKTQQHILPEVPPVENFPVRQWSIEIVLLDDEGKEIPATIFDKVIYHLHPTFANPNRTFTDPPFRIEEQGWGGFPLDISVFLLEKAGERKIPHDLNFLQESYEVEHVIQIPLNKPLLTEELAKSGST

AF9-YEATS Y78W/A79G = molecular target: T8, AF9-YEATS Y78W/A79G (human, UniProt P42568 1-138, Y78W | A79G)
T8 sequence: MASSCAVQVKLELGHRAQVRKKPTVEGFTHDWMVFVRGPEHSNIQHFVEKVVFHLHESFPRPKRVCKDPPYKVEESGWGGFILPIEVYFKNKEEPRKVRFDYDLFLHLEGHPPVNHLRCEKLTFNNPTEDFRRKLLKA

[7] = molecular target: T6, AF9-YEATS domain (aa 1-138); assay: crystal structure; AF9-YEATS (wild type or Y78W) at 6 mg/ml with two molar equivalents of peptide; sitting drop, 4 °C; conditions: both partners purified
Taf14-YEATS W81Y = Taf14-YEATS W81Y (yeast, UniProt P35189 1-137, W81Y)
AF9-YEATS Y78W [8] = molecular target: T9, AF9-YEATS Y78W (human, UniProt P42568 1-138, Y78W); assay: crystal structure; AF9-YEATS (wild type or Y78W) at 6 mg/ml with two molar equivalents of peptide; sitting drop, 4 °C; conditions: both partners purified
T9 construct: AF9, human, YEATS domain, aa 1-138 with Y78W; also called Y78W mutant; source: E. coli BL21 (DE3) RIL, purified
T9 sequence (looked up): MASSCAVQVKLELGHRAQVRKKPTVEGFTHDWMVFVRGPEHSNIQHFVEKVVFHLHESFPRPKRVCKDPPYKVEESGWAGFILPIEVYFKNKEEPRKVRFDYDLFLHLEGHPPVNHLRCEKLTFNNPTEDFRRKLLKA

Taf14 YEATS domain [9] = molecular target: T3, Taf14 YEATS domain; assay: NMR
H3K9acyl = conditions: cited from earlier work
Description: To assess how AF9-YEATS interacts with both H3K9acyl and DNA, we reconstituted H3K9acyl-containing nucleosome core particles (H3K9cr-NCPs and H3K9ac-NCP) and examined binding of AF9-YEATS to these NCPs and to unmodified NCP in EMSA.

AF9-YEATS Y78W [10] = molecular target: T10, AF9-YEATS Y78W (human, UniProt P42568 1-138, Y78W)
T10 sequence: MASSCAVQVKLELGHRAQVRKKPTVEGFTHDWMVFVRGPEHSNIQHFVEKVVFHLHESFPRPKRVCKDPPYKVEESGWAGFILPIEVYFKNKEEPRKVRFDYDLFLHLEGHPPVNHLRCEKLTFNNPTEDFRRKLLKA

AF9-YEATS Y78W [11] = molecular target: T9, AF9-YEATS Y78W; assay: other fluorescence titration; tryptophan fluorescence; 1-2 µM wild-type or mutated AF9 YEATS domain in 20 mM Tris pH 7.5, 500 mM NaCl, 2 mM BME, 25 °C, increasing concentrations of H3 peptide (aa 5-13); conditions: both partners purified
Taf14 YEATS domain [12] = molecular target: T3, Taf14 YEATS domain; assay: other fluorescence titration; tryptophan fluorescence; 1-2 µM wild-type or mutated Taf14 YEATS domain in PBS pH 7.4, 25 °C, increasing concentrations of H3 peptide (aa 5-13); excitation 295 or 280 nm

**Q.** With `C/C=C/C(=O)NCCCC[C@H](NC(=O)[C@H](CCCNC(=N)N)NC(=O)[C@H](C)NC(=O)[C@@H](NC(=O)[C@@H](N)CCC(N)=O)[C@@H](C)O)C(=O)N[C@@H](CO)C(=O)N[C@H](C(=O)NCC(=O)NCC(=O)O)[C@@H](C)O` [H3K9cr] as the molecule, how does the “Selectivity of G82A mutant for H3K9cr (over H3K9ac)” value (Taf14-YEATS G82A [1]; from NMR titration data for H3K9ac, author's response in peer review file) read?
**A.** greater than 80 -fold

**Q.** What about the Kd (AF9-YEATS Y78W [2]) of the same molecule?
**A.** 2 µM

**Q.** And the Kd (Taf14-YEATS G82A [3])?
**A.** 124 µM

**Q.** With `CC(=O)NCCCC[C@H](NC(=O)[C@H](CCCNC(=N)N)NC(=O)[C@H](C)NC(=O)[C@@H](NC(=O)[C@@H](N)CCC(N)=O)[C@@H](C)O)C(=O)N[C@@H](CO)C(=O)N[C@H](C(=O)NCC(=O)NCC(=O)O)[C@@H](C)O` [H3K9ac] as the molecule, how does the Kd (Taf14-YEATS G82A [1]) read?
**A.** > 10000 µM

B1: histone H3K9cr peptide (aa 5-13) (peptide, UniProt P68431 6-14, looked up)
peptide: QTARK(Crotonyl(E))STGG
notes: histone H3, residues 5-13, K9 crotonylated; also called H3K9cr (5-13); source: bought: Synpeptide
**Q.** Which results are given for B1?
**A.** Kd (Taf14 YEATS domain [4]): 9 µM; Kd [5]: 3.7 µM; binding result (Taf14-YEATS G82A (1-137)): binds; binding result [6]: binds

B2: histone H3K9pr (5-13) peptide (peptide, UniProt P68431 6-14, looked up)
peptide: QTARK(Propionyl)STGG
notes: histone H3, residues 5-13, K9 propionylated; also called propionylated H3K9pr peptide
**Q.** Does B2 bind (Taf14-YEATS (1-137))?
**A.** binds

**Q.** With QTARK(Ac)STGG [histone H3K9ac peptide (limits not stated)] as the molecule, how does the Kd (AF9-YEATS Y78W/A79G) read?
**A.** 2.6 µM

B3: histone H3K9bu (1-19) peptide (peptide, UniProt P68431 2-20, looked up)
peptide: ARTKQTARKSTGGKAPRKQ
modifications: butyryllysine at K9
notes: histone H3, residues 1-19, K9 butyrylated
**Q.** Does B3 bind [7]?
**A.** binds

**Q.** With QTARK(Crotonyl(E))STGG [histone H3K9cr peptide (limits not stated)] as the molecule, how does the Kd (Taf14-YEATS W81Y) read?
**A.** 9.2 µM

**Q.** What about the Kd (AF9-YEATS Y78W/A79G) of the same molecule?
**A.** 2.7 µM

B4: histone H3K9cr (5-14) peptide (peptide, UniProt P68431 6-15, looked up)
peptide: QTARK(Crotonyl(E))STGGK
notes: histone H3, residues 5-14, K9 crotonylated
**Q.** Does B4 bind (AF9-YEATS Y78W [8])?
**A.** binds

**Q.** Which Kd (Taf14 YEATS domain [9]) does the source give for QTARK(Suc)STGG [histone H3K9su peptide] here?
**A.** > 700 µM

B5: AF9-YEATS F59A/Y78A: AF9-YEATS mutant defective in H3K9acyl binding (protein)
chain: MASSCAVQVKLELGHRAQVRKKPTVEGFTHDWMVFVRGPEHSNIQHFVEKVVFHLHESAPRPKRVCKDPPYKVEESGAAGFILPIEVYFKNKEEPRKVRFDYDLFLHLEGHPPVNHLRCEKLTFNNPTEDFRRKLLKA
modifications: left off: His tag, end not stated, cleaved
**Q.** For B5, which “H3K9acyl binding of mutant” value (H3K9acyl) is on record?
**A.** defective in H3K9acyl binding

B6: histone H3K9ac peptide (aa 5-13) (peptide, UniProt P68431 6-14, looked up)
peptide: QTARK(Ac)STGG
notes: histone H3, residues 5-13, K9 acetylated; source: bought: Synpeptide
**Q.** With B6 as the molecule, how does the Kd (Taf14 YEATS domain [4]) read?
**A.** 130 µM

**Q.** And the Kd [5]?
**A.** 4.3 µM

**Q.** And the Kd (AF9-YEATS Y78W [10])?
**A.** 2.3 µM

**Q.** Does B6 bind [6]?
**A.** binds

**Q.** And the Kd (AF9-YEATS Y78W [11])?
**A.** 2 µM

B7: histone H3K9bu peptide (aa 5-13) (peptide, UniProt P68431 6-14, looked up)
peptide: QTARK(Butyryl)STGG
notes: histone H3, residues 5-13, K9 butyrylated; also called H3K9bu (5-13); source: bought: Synpeptide
**Q.** Which Kd (Taf14 YEATS domain [4]) does the source give for B7 here?
**A.** 28 µM

**Q.** And the Kd [5]?
**A.** 3.9 µM

**Q.** And the Kd (Taf14-YEATS W81Y)?
**A.** 40 µM

**Q.** Does B7 bind (Taf14-YEATS (1-137))?
**A.** binds

**Q.** And the fold reduction of binding against H3K9cr (Taf14 YEATS domain [12])?
**A.** 3 fold

**Q.** Does B7 bind [6]?
**A.** binds
